The target in series [1] is RNA polymerase core enzyme (alpha2 beta beta' omega) (Escherichia coli, UniProt P0A7Z4;P0A8V2;P0A8T7;P0A800 1-329;1-1342;1-1407;1-91). Description: EMSA; 40-160 nM core; tandem (D) complex; EMSA buffer D (1x): 20 mM Tris-acetate, 10 mM Mg acetate, 50 mM K acetate, 1 mM DTT, pH 7.8; native PAGE in 0.5x TBE running buffer; 37 C for the tac and slyD template reactions, otherwise temperature not stated. The following applies: protein: native; chain copies: 2;1;1;1; label: 5'-32P. (In general: In EMSA bound probe runs differently from free probe, usually more slowly.)

Series [2] deals with RNA polymerase holoenzyme (alpha2 beta beta' omega sigma70) (Escherichia coli, UniProt P0A7Z4;P0A8V2;P0A8T7;P0A800;P00579 1-329;1-1342;1-1407;1-91;1-613). Description: EMSA; 40-160 nM holoenzyme; single-copy (M) complex; EMSA buffer D (1x): 20 mM Tris-acetate, 10 mM Mg acetate, 50 mM K acetate, 1 mM DTT, pH 7.8; native PAGE in 0.5x TBE running buffer; 37 C for the tac and slyD template reactions, otherwise temperature not stated. The following applies: protein: native; chain copies: 2;1;1;1;1; label: 5'-32P.

B1: short DNA probe (Fig 2E) (mixed)
DNA: CGCGCCAACAGCGACATCAAATTTGTCGCC
As for B1, the binding result in series [1] and in series [2] was “binds” throughout.

(Values after publication PMC3080401, “Oligomerization of the E. coli Core RNA Polymerase: Formation of (α2ββ'ω)2–DNA Complexes and Regulation of the Oligomerization by Auxiliary Subunits”.)
